The source of these data is US20030059429A1 (published 2003).

The target in one test is human IL-1β (human, UniProt P01584 117-269). Description: ELISA, supernatants of the cloned lines. In general terms: ELISA stands for enzyme-linked immunosorbent assay.
Another test has as its target T1, human IL-1α (human, UniProt P01583 113-271).
T1 sequence (looked up): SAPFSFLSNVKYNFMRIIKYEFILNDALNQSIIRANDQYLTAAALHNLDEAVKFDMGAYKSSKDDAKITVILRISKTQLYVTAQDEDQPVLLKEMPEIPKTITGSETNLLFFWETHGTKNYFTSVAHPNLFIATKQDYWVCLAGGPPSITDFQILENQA
Description: ELISA, supernatants of the cloned lines.

The target of the next test is human TGFα (human, UniProt P01135 40-89). Description: ELISA, supernatants of the cloned lines.
The target in the next test is T2, human M-CSF (human, UniProt P09603 33-190, limits assumed).
T2 sequence (looked up): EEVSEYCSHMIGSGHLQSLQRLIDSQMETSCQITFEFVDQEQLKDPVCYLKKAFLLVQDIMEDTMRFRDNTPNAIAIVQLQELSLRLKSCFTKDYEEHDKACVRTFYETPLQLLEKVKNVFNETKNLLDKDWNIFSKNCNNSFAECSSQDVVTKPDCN
Kind of test: ELISA, supernatants of the cloned lines.

The next test has as its target human IL-8 (human, UniProt P10145 28-99, limits assumed). Kind of test: ELISA, supernatants of the cloned lines.
The next test has as its target T3, human IL-4 (human, UniProt P05112 25-153).
T3 sequence (looked up): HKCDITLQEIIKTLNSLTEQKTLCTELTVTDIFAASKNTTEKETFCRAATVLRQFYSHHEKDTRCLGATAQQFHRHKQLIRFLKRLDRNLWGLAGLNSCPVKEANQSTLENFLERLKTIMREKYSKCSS
Kind of test: ELISA, supernatants of the cloned lines.

Test [1] deals with T4, Recombinant human IL-5 (human, UniProt P05113 20-134, 125I label (Bolton-Hunter reagent) in the receptor binding inhibition assay and the colony lifts; residues not stated). Description: cell-based or functional assay.
Test [2] has as its target T4, Recombinant human IL-5. Kind of test: inhibition of 125I-IL-5 binding to IL-5R(α chain) from Drosophila membranes.
Test [3] deals with T4, Recombinant human IL-5. Kind of test: optical biosensor (BIAcore), immobilized hIL-5, 25° C. Background: Surface plasmon resonance follows binding to a sensor surface in real time, without labels.
Test [4] deals with T4, Recombinant human IL-5. Description: cell-based or functional assay. The source holds these as a separate data set.
Test [5] has as its target T4, Recombinant human IL-5. Kind of test: colony lift assay with iodinated IL-5, chain shuffled library.

Numbering of substitutions follows the chain as printed.

B1: murine monoclonal antibody 2E3 (antibody, IgG2a, V domains shown)
VH: PGLVAPSQSLSITCTVSGFSLTSYSVHWVRQPPGKGLEWLGVIWASGGTDYNSALMSRLSISKDNSKSQVFLKLNSLQTDDAAMYYCARDPPFSLLRLDFWGQGTTLTVSS
VL: SSLSVSAGEKVTMSCKSSQSLLNSGNQKNYLAWYQQKPGQPPKLLIYGASTRESGVPDRFTGSGSGTDFTLTISSVQAEDLAVYYCQNDHSFPFTFGSGTELEIK
notes: also called mAb 2E3; hybridoma SK119-2E3.39.40.2
By IC50 is commonly meant the concentration that gives 50% inhibition. The term Kd denotes the free concentration of one partner at which half of the binding sites on the other are occupied at equilibrium, for simple one-to-one binding. For B1, the binding result with human IL-1β, with human IL-1α, in the test with human TGFα, in the test with human M-CSF, in the test with human IL-8 and with human IL-4 was “no binding” throughout. The “inhibition of proliferation of murine B13 cells” value (shortened to “inhibition … of murine B13 cells”) with Recombinant human IL-5 [1] is greater than 70%. For the same molecule, in the test with Recombinant human IL-5 [2], the IC50 was found to be 1000 pM. Also, the Kd in the test with Recombinant human IL-5 [3] is 20 pM. For the same molecule, the “100% Inhibition (pM), B13 cell proliferation” value (“100% Inhibition (pM)” below) with Recombinant human IL-5 [4] was found to be 600 pM. Further, the “Proliferation IC50 (pM), B13 cells” value with Recombinant human IL-5 [4] was 90 pM.

B2: murine monoclonal antibody 2F2 (antibody, V domains shown)
VH: B1 VH with Q78R, A82T, F93S, F100Y
VL: B1 VL
notes: also called mAb 2F2; hybridoma SK119-2F2.37.80.12
Take B2: the binding result in the test with human IL-1β, with human IL-1α, with human TGFα, with human M-CSF, with human IL-8 and in the test with human IL-4 was “no binding” in each case. Moreover, the “inhibition … of murine B13 cells” value with Recombinant human IL-5 [1] is greater than 70%. The IC50 in the test with Recombinant human IL-5 [2] was 1000 pM. For the same molecule, the Kd with Recombinant human IL-5 [3] was 13 pM. For the same molecule, in the test with Recombinant human IL-5 [4], the “100% Inhibition (pM)” value is 340 pM. Further, in the test with Recombinant human IL-5 [4], the “Proliferation IC50 (pM), B13 cells” value is 150 pM.

B3: murine monoclonal antibody 2B6 (antibody, IgG1, V domains shown)
VH: QVQLKESGPGLVAPSQSLSITCTVSGFSLTSYSVHWVRQPPGKGLEWLGVIWASGGTDYNSALMSRLSISKDNSKSQVFLKLNSLQTDDTAMYYCARDPPSSLLRLDYWGQGTTLTVSS
VL: DIVMTQSPSSLSVSAGEKVTMSCKSSQSLLNSGNQKNYLAWYQQKPGQPPKLLIYGASTRESGVPDRFTGSGSGTDFTLSISSVQAEDLAVYYCQNVHSFPFTFGSGTELEIK
notes: also called mAb 2B6; murine 2B6
For B3, the binding result with human IL-1β, with human IL-1α, in the test with human TGFα, in the test with human M-CSF, with human IL-8 and in the test with human IL-4 was “no binding” throughout. Moreover, the “inhibition … of murine B13 cells” value with Recombinant human IL-5 [1] was greater than 70%. Further, in the test with Recombinant human IL-5 [2], the IC50 stood at 1000 pM. Moreover, the Kd in the test with Recombinant human IL-5 [3] worked out at 22 pM. Further, the “100% Inhibition (pM)” value in the test with Recombinant human IL-5 [4] was found to be 200 pM. Further, in the test with Recombinant human IL-5 [4], the “Proliferation IC50 (pM), B13 cells” value is 70 pM.

B4: Fab 15 from the chain-shuffled library (2B6 Fd with a library light chain) (Fab, V domains shown)
VH: B3 VH
VL: B3 VL with D1E, I2L, S80T, V97D, H98Y, F100Y, E109K
notes: not shown: constant part of the murine 2B6 Fd (CH1) and any tag from pMKFabGene3H
As for B4, in the test with Recombinant human IL-5 [5], the binding result was “binds”.

B5: Fab 2 from the chain-shuffled library (2B6 Fd with a library light chain) (Fab, V domains shown)
VH: B3 VH
VL: B3 VL with D1E, I2L, S80T, V97D, F100Y, E109K
notes: as for B4
Turning to B5, the binding result in the test with Recombinant human IL-5 [5] was “binds”.
